Measured values reported in PMC11448073 (Microbiology Spectrum, 2024).

B1: human anti-F1 monoclonal antibody αF1Ig8 (antibody, V domains shown)
VH: QVQLQQWGAGLLKPSETLSLTCAVYGGSFSGYYWSWIRQPPGKGLEWIGEINHSGNTNYNPSLKSRVTISVDTSKNQFSLQLNSVTPEDTAVYYCARTRGYFDLWGRGTLVTVSS
VL: DIRMTQSPSSLSASVGDRVTITCRASQSISSYLNWYQQKPGKAPKLLIYATSSLQSGVPSRFSGSGSGTDFTLTISSLQFEDFATYYCQQSYSTPSSFGQGTKVDIK
notes: source: EXPi293F, synthesized expression plasmids
B2: human monoclonal antibody F3 (antibody, V domains shown)
VH: EVQLLESGGGVVQPGRSLRLSCAASGFTFSRYGMHWVRQAPGKGLEWVAVISHDGNIKYYGDSVKGRFTISRDNSKNTLYLQMNSLRVEDTAVYYCAKDRGKFDSWGQGTLVTVSS
VL: not shown
notes: also called F3-HRP; source: Expi293F, cotransfected heavy and light chain plasmids, purified (Protein A); copies: 2 + 2
B3: human monoclonal antibody F19 (antibody, V domains shown)
VH: EVQLLESGGGVVQPGGSLRLSCAASGFTFDDYAMHWVRQVPGKGLEWVSLISGDGGSTSYADSVKGRFTISRDNSKNSLYLQMSSLRTEDTALYYCAKDRGRAWIDYWGQGTLVTVSS
VL: not shown
notes: also called HRP-conjugated F19; source: Expi293F, cotransfected heavy and light chain plasmids, purified (Protein A); copies: 2 + 2
B4: human monoclonal antibody F23 (antibody, V domains shown)
VH: EVQLLESGGGVVQPGRSLRLSCAASGFTFSSYAMHWVRQAPGKGLEWVAAILYDGSNKNYADSVKGRFTISRDNSKNTLYLQMNSLRAEDTAVYYCARGTPAMVRGVIGPLFEHWGQGTLVTVSS
VL: DIQMTQSPDSLAVALGERATINCKSSQSVLYTSNNKNYLAWYQKKPGQPPKLLIYWASTRESGVPDRFSGSGSGTDFTLTISSLQPEDVAVYYCQQYFILPRTFGQGTKLEIK
notes: also called HRP-conjugated F23; source: Expi293F, cotransfected heavy and light chain plasmids, purified (Protein A); copies: 2 + 2

Key:
[1] = target: fraction 1 capsular antigen (F1) of Yersinia pestis (Yersinia pestis EV strain, UniProt P26948); test: ELISA; conditions: both partners purified
[2] = target: T1, SARS-CoV-2 nucleocapsid protein (N) (SARS-CoV-2, strain , UniProt P0DTC9); test: ELISA
T1 construct: also called SARS-CoV-2 NPs

[3] = target: fraction 1 capsular antigen (F1) of Yersinia pestis (Yersinia pestis EV strain, UniProt P26948); test: BLI; conditions: both partners purified

| Binder | binding result [1] | binding result [2] | Kd [3] [nM] |
| --- | --- | --- | --- |
| B1 | binds |  |  |
| B2 |  | no binding |  |
| B3 |  | no binding | 0.165 |
| B4 |  | no binding |  |
